The target in this data set is GR-AF1-DBD unmodified (Homo sapiens, UniProt P04150 27-506). Put plainly: EMSA; reference; Kd plotted in figure only; 5 mM Mg2+; EMSA: 20 mM Tris-HCl pH 8.0, 150 mM KCl, 10% glycerol, 5 mM MgCl2, 1 mM DTT, 1 mM EDTA, 200 ng/uL BSA, 40 ng/uL salmon sperm DNA; dsDNA diluted to 10 nM in this buffer; Hill fit; temperature not given. The following applies: protein: recombinant; tags: His6 (pET28a); chain copies: 2; label: Cy5; blunt. (In general: In EMSA bound probe runs differently from free probe, usually more slowly.)
GR-AF1-DBD unmodified, sequence (P04150 27-506): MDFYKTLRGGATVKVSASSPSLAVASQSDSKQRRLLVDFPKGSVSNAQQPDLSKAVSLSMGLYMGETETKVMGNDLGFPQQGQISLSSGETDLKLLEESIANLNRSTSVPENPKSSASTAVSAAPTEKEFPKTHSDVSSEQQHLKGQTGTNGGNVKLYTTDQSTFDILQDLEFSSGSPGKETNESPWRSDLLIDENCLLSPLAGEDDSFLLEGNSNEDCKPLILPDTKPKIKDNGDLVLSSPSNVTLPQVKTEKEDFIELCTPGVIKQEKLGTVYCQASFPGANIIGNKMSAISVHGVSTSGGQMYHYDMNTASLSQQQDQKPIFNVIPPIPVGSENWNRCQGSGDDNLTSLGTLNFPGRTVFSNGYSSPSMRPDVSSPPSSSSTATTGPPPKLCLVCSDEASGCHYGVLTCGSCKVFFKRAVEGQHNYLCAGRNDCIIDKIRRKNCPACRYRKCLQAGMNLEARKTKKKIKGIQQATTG

B1: consensus GR site (dsDNA)
DNA 1: GTACGGAACATCGTGTACTGTAC
DNA 2: GTACAGTACACGATGTTCCGTAC
Take B1: the binding result is “binds”.

The values are drawn from article PMC10778422, “PI3Kδ Inhibition Potentiates Glucocorticoids in B-lymphoblastic Leukemia by Decreasing Receptor Phosphorylation and Enhancing Gene Regulation”.
